# Experimental data as given in patent publication US20250340636A1 (Memorial Sloan Kettering, published 2025).
# Legend:
# [1] = biological target: T1, mouse L1CAM on transiently transfected HEK293FT cells (mouse, UniProt P11627 20-1260); assay: flow cytometry, HEK293FT cells transiently transfected with mouse L1CAM (data not shown)
# T1 construct: whole, on cells; also called mouse L1CAM on cells
# [2] = biological target: T2, soluble cynomolgus monkey L1CAM, His-tagged, monomeric (cynomolgus monkey, UniProt A0A2K5URB5 20-1120); assay: summary table; soluble cynomolgus monkey L1CAM (monomer)
# T2 construct: also called cyL1CAM protein; cynomolgus L1CAM-His
# Description: (§1) Cross-reactivity to Cynomolgus Monkey L1CAM. Affinity to cynomolgus L1CAM was measured by BLI using an Octet Red96e instrument. […] The data was prepared by reference well subtraction, and response curves were globally fit to a 1:1 Langmuir binding model.
# [3] = biological target: T2, soluble cynomolgus monkey L1CAM, …; assay: BLI (Octet Red96e), His-tagged cynomolgus L1CAM on Ni-NTA biosensors, mAb as analyte, 1:1 fit
# Description: as §1
# [4] = biological target: T3, soluble mouse L1CAM (monomer), His-tagged (mouse, UniProt P11627 20-1123, limits assumed); assay: BLI, mouse against human L1CAM-His
# T3 construct: read as mouse
# Description: Cross-reactivity to Mouse L1CAM. Affinity to mouse L1CAM was measured by BLI using an Octet Red96e instrument. […] The data was prepared by reference well subtraction, and response curves were globally fit to a 1:1 Langmuir binding model.
# [5] = biological target: T4, human L1CAM on cells (human, UniProt P32004 20-1257); assay: flow cytometry, MDA-MB-231 cells, AlexaFluor 647 anti-human Fc secondary
# T4 construct: Overexpressed on stably transfected HEK293T cells or endogenous on MCF-7 and MDA-MB-231 cells; also called HEK293T-hL1CAM
# Description: (§2) Binding to L1CAM on Cells. […] Cells were then incubated with an AlexaFluor 647 goat anti-human Fc secondary antibody. After washing, the stained cells were analyzed by flow cytometry.
# (§3) The binding curves for each antibody and cell line normalized to secondary antibody only staining (MFI ratio) are shown in FIGS. 14A-14C. EC50 values were determined by non-linear regression (Table 70). […] It is possible that differences in the conformation and oligomerization of L1CAM, depending on the surface expression level, contributed to the binding pattern. […] An avidity effect due to high levels of L1CAM surface expression may have contributed to the strong binding observed in this experiment.
# [6] = biological target: T4, human L1CAM on cells; assay: summary table; binding to cells with endogenous L1CAM (MCF-7)
# Description: as §2, §3
# [7] = biological target: T5, extracellular domain of human L1CAM (isoform 1) fused to a poly-histidine tag via its carboxy terminus (human, UniProt P32004 20-1120); assay: summary table; binding to soluble human L1CAM (monomer)
# T5 construct: Bought (Creative Biomart); also called L1CAM-His; huL1CAM protein
# Description: Binding to L1CAM in Solution. Affinity to human L1CAM was measured by BLI using an Octet Red96e instrument. […] The data was prepared by reference well subtraction, and response curves were globally fit to a 1:1 Langmuir binding model.
# [8] = biological target: T2, soluble cynomolgus monkey L1CAM, …; assay: BLI, cynomolgus against human L1CAM-His
# Description: as §1
# [9] = biological target: T4, human L1CAM on cells; assay: summary table; binding to cells with endogenous L1CAM (MDA-MB-231)
# Description: as §2, §3
# T4 sequence (P32004 20-1257): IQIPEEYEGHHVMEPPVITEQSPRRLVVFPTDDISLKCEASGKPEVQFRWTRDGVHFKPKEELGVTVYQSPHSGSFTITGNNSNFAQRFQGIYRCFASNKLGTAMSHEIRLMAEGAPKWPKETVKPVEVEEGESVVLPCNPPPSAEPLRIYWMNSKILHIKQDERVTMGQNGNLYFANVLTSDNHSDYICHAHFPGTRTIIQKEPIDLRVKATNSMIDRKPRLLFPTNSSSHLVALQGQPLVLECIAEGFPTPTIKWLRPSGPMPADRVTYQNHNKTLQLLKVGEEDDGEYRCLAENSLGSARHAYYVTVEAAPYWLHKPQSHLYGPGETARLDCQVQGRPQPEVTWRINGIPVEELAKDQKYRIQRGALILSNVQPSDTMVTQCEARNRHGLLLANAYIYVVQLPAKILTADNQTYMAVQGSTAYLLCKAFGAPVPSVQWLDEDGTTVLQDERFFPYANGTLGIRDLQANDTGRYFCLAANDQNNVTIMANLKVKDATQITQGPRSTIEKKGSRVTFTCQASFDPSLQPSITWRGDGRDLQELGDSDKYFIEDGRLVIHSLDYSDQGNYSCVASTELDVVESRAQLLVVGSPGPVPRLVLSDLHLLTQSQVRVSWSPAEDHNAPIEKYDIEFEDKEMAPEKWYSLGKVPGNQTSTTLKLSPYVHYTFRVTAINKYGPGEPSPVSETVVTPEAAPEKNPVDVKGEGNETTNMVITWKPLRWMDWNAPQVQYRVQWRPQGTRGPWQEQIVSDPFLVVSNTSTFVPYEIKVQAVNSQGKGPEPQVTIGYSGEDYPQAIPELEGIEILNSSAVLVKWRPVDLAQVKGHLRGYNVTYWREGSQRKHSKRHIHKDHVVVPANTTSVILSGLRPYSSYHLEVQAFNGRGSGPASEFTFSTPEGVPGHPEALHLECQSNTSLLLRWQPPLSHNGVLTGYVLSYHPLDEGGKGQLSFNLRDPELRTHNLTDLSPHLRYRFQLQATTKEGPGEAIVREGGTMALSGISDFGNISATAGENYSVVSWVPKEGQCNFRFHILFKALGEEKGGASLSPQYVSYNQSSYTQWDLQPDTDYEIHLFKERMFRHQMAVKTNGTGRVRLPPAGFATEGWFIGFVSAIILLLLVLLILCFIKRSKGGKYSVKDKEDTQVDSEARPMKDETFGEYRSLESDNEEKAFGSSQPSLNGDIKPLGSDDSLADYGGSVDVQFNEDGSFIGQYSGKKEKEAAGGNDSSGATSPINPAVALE
# T5 sequence (P32004 20-1120): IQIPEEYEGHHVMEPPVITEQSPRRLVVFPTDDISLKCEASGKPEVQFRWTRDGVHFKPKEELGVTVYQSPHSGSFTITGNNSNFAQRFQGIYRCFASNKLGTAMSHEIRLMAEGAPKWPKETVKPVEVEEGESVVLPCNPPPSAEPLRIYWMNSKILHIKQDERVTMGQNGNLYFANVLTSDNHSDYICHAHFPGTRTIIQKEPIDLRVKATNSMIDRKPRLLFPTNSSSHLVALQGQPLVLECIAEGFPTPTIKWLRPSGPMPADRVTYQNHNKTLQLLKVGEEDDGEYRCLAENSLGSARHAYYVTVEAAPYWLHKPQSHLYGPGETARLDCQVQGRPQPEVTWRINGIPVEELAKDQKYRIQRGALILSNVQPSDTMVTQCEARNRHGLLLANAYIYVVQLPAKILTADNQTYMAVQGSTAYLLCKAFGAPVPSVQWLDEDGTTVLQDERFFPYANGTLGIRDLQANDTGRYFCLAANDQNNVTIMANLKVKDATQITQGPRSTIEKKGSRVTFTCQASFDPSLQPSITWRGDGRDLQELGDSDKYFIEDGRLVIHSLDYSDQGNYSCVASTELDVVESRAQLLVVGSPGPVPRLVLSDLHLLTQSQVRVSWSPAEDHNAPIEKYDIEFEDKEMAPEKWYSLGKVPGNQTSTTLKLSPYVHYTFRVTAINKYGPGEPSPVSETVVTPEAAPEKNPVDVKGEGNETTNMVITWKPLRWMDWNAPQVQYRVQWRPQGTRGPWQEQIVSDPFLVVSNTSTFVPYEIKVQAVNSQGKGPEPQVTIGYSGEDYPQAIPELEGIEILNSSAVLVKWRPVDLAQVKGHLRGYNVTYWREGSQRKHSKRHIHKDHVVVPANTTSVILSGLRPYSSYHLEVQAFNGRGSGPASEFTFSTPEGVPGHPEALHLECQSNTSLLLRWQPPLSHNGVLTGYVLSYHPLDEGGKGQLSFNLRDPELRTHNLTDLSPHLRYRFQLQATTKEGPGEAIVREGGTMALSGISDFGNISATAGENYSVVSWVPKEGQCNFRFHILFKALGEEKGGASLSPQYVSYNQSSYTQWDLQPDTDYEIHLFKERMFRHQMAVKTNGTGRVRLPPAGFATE
# T1 sequence (P11627 20-1260): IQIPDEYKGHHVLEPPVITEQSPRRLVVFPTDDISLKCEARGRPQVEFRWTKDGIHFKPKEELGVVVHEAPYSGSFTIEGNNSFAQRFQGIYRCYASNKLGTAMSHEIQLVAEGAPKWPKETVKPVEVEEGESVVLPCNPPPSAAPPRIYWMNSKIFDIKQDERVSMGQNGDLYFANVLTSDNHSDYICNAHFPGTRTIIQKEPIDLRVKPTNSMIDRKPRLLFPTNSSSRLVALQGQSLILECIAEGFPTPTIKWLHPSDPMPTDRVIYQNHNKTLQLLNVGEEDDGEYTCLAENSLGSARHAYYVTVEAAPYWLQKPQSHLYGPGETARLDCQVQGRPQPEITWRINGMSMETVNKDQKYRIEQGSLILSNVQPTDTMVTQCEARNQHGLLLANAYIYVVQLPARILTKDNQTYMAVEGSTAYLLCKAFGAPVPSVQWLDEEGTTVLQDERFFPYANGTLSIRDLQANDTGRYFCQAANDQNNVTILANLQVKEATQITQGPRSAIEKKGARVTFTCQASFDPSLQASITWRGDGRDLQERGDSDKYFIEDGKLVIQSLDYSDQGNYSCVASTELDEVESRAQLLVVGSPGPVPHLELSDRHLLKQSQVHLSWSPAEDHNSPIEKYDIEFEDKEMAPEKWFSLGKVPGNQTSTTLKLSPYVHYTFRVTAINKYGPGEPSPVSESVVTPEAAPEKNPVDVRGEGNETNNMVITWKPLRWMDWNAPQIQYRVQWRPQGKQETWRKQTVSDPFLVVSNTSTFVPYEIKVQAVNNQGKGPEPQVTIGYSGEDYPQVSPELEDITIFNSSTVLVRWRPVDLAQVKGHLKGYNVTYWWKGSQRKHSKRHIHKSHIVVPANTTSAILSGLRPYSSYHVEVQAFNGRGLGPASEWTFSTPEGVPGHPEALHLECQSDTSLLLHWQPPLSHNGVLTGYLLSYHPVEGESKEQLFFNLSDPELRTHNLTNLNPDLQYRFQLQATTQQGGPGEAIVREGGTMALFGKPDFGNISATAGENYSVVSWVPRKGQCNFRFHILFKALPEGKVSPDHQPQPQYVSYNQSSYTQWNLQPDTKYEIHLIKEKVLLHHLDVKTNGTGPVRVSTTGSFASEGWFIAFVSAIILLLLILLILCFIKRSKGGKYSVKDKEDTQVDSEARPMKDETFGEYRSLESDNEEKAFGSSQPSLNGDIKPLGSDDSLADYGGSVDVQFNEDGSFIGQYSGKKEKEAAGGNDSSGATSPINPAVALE
# T3 sequence (P11627 20-1123 limits assumed): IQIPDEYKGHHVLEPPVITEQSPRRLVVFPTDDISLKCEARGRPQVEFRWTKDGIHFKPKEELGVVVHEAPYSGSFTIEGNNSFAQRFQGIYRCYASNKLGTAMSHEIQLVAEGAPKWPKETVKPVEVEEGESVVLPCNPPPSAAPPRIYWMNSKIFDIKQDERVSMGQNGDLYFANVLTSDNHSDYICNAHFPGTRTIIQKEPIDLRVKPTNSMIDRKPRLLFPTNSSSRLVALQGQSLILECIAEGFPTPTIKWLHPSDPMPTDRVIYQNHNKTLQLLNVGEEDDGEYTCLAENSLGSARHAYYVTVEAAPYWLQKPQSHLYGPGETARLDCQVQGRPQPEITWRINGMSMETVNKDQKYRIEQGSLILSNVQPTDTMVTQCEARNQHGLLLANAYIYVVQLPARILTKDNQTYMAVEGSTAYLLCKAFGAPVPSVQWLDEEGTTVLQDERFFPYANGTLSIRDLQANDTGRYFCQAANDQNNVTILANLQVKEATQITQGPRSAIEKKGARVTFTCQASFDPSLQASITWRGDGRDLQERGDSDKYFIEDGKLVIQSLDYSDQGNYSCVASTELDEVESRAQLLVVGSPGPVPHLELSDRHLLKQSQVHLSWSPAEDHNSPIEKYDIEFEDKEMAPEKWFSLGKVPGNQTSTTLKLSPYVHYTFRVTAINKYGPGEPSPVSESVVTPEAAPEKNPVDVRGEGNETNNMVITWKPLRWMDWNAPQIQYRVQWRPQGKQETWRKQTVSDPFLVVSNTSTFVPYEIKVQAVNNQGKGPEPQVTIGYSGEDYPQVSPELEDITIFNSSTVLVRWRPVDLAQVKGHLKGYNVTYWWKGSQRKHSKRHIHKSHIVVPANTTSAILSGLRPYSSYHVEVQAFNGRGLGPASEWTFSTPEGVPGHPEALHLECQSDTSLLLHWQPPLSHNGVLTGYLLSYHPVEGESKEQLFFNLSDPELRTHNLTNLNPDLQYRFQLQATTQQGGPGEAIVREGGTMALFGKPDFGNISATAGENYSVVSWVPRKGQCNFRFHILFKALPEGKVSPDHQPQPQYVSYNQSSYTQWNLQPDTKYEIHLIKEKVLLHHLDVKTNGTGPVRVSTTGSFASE
binder,measurement,setting,value
"TDI-Y-005 (antibody, human IgG1, kappa, V domains shown, Human IgG1, kappa; also called human 14A10 mAb; fully human 14A10 mAb) VH: EVQMVESGGGLVQPGGSLRLSCAAPGFIFSSYNMNWVRQAPGKGLEWVSYISSSSSTTYYADSVKGRFTISRDNAKNSLYLQMNSLRDEDTAVYYCASLYSGYDYYYYYGMDVWGQGTTVTVSS VL: DIVMTQTPLSSPVSLGQPASISCRSSQSLVHSDGNTYLSWLQQRPGQPPRVLIYKISKRFSGVPDRFSGSGAGTDFTLKISRVEAEDVGVYYCMQATQFPFTFGPGTKVDIKR",EC50,[1],0.9 nM
same,Kd,[2],1.3 nM
same,koff,[2],0.00012 s⁻¹
same,kon,[2],93000 M⁻¹ s⁻¹
same,Kd,[3],1.3 nM
same,koff,[3],0.00012 s⁻¹
same,kon,[3],93000 M⁻¹ s⁻¹
same,fold difference of KD against human L1CAM,[4],≤ 8 fold
same,EC50,[5],7.1 nM
same,EC50,[6],2.5 nM
same,Kd,[7],4.3 nM
same,koff,[7],0.00014 s⁻¹
same,kon,[7],33000 M⁻¹ s⁻¹
same,fold difference of KD against human L1CAM,[8],≤ 3.3 fold
same,EC50,[9],7.1 nM
